Measured values published in patent US20220064329A1 (Novo Nordisk, published 2022).

Experiments:
Assay in all cases: SPR, Biacore T200, 25 C; FVII(a) variant captured on anti-Gla Ab 4F6, mAb0842(OA) injected
[1] = target: T1, FVII(a) variant H115A (human, UniProt P08709 61-466)
T1 construct: hFVII alanine variant in cell culture supernatant
T1 sequence: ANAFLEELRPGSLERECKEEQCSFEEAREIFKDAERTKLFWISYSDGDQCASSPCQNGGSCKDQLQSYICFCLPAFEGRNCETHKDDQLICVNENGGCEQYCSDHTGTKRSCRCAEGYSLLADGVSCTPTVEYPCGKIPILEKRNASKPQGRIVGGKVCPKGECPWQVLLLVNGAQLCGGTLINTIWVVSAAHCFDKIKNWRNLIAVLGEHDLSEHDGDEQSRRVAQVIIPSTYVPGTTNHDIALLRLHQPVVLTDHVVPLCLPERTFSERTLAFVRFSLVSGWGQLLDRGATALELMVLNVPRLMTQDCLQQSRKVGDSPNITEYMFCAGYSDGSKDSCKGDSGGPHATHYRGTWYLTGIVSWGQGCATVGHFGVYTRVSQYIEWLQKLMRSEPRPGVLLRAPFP
Protocol: (§1) The running buffer was prepared by diluting 10-fold the 10×HBS-P buffer (supplied by GE Healthcare) and supplemented with 1 mg/ml BSA and 5 mM CaCl2 to give 10 mM HEPES, 150 mM NaCl, 0.05% v/v Polysorbate 20, pH 7.4, 5 mM CaCl2, 1 mg/ml bovine serum albumin (BSA). […] Regeneration of the chip was achieved using 10 mM HEPES, 150 mM NaCl, 20 mM EDTA, 0.05 v/v Polysorbate 20, pH 7.4. Binding data were analysed according to a 1:1 Kinetic model and steady state analysis using BiaEvaluation 4.1 supplied by the manufacturer (Biacore AB, Uppsala, Sweden). Wherever possible, ka, kd and KD values from 1:1 kinetic fitting model are reported. […] An amino acid residue is considered a hot-spot residue if substitution of that amino acid residue with alanine results in an affinity reduction of ten (10) fold or more relative to the wild type.

[2] = target: T2, FVII(a) variant V131A (human, UniProt P08709 61-466)
T2 construct: hFVII alanine variant in cell culture supernatant
T2 sequence: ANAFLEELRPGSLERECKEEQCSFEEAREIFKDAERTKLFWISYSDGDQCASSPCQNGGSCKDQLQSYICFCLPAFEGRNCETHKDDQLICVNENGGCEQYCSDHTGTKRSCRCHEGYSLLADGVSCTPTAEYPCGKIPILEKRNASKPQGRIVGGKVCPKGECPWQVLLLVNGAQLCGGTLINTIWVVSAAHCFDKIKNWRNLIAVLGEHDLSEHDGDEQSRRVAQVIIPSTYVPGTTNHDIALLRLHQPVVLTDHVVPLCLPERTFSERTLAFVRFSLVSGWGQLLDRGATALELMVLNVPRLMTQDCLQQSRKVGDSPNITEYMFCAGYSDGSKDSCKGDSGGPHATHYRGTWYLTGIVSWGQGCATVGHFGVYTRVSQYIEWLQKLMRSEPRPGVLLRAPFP
Protocol: as §1

[3] = target: T3, FVII(a) variant P251A (human, UniProt P08709 61-466)
T3 construct: hFVII alanine variant in cell culture supernatant
T3 sequence: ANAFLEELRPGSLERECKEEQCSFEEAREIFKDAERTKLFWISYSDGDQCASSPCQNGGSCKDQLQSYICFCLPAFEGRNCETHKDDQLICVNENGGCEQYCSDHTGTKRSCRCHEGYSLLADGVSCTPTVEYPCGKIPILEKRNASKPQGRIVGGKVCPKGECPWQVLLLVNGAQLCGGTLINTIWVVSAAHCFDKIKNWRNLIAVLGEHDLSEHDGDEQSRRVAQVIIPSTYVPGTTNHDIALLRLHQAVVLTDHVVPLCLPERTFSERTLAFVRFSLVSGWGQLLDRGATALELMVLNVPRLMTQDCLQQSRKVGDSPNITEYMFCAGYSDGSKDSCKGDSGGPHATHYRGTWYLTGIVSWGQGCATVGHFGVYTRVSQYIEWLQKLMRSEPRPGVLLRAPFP
Protocol: as §1

[4] = target: T4, FVII(a) variant R113A (human, UniProt P08709 61-466)
T4 construct: hFVII alanine variant in cell culture supernatant
T4 sequence: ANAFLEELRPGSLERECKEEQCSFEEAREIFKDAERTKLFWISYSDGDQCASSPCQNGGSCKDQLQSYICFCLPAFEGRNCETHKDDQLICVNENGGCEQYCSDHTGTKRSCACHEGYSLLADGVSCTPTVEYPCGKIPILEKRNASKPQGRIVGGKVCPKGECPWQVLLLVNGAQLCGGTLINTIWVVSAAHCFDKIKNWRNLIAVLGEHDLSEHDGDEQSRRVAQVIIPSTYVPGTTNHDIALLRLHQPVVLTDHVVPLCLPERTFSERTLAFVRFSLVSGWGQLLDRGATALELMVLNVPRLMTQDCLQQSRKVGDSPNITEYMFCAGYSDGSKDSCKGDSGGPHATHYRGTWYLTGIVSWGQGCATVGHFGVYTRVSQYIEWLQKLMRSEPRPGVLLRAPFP
Protocol: as §1

[5] = target: T5, FVII(a) variant L120A (human, UniProt P08709 61-466)
T5 construct: hFVII alanine variant in cell culture supernatant
T5 sequence: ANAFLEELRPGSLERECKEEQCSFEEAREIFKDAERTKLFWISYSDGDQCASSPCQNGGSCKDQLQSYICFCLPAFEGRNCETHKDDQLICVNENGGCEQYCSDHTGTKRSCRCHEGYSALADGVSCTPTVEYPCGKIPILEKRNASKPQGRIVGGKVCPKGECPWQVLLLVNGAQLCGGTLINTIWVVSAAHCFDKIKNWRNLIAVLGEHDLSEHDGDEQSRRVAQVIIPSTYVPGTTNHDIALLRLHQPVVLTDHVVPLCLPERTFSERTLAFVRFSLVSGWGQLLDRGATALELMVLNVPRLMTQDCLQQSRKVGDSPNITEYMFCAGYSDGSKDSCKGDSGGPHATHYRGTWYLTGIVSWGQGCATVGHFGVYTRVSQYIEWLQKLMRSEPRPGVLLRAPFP
Protocol: as §1

B1: mAb0842(OA) (antibody, human IgG4 S228P, kappa)
heavy: QVQLQESGPGLVKPSQTLSLTCTVSGYSISSDSAWSWIRQPPGKGLEWIGYIQYSGSTNYNPSLKSRVTISRDTSKNQFSLKLSSVTAADTAVYYCARSVNYYGNSFAVGYWGQGTLVTVSSASTKGPSVFPLAPCSRSTSESTAALGCLVKDYFPEPVTVSWNSGALTSGVHTFPAVLQSSGLYSLSSVVTVPSSSLGTKTYTCNVDHKPSNTKVDKRVESKYGPPCPPCPAPEFLGGPSVFLFPPKPKDTLMISRTPEVTCVVVDVSQEDPEVQFNWYVDGVEVHNAKTKPREEQFNSTYRVVSVLTVLHQDWLNGKEYKCKVSNKGLPSSIEKTISKAKGQPREPQVYTLPPSQEEMTKNQVSLSCAVKGFYPSDIAVEWESNGQPENNYKTTPPVLDSDGSFFLVSRLTVDKSRWQEGNVFSCSVMHEALHNHYTQKSLSLSLGK
light: EIVLTQSPATLSLSPGERATLSCRASQGISDYLHWYQQKPGEAPRLLIKYTSQPATGIPARFSGSGSGTDFTLTISSLEPEDFAVYYCQNGHSFPLTFGQGTKLEIKRTVAAPSVFIFPPSDEQLKSGTASVVCLLNNFYPREAKVQWKVDNALQSGNSQESVTEQDSKDSTYSLSSTLTLSKADYEKHKVYACEVTHQGLSSPVTKSFNRGEC
chain: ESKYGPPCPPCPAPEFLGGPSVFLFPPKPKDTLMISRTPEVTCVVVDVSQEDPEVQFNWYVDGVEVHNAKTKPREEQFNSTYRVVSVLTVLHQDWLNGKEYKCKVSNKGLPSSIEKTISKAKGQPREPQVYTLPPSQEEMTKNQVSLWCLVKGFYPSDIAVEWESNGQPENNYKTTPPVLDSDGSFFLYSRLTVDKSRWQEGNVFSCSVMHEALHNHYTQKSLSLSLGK
notes: also called monovalent humanized 11F2 antibody; one-armed anti-FVII(a) antibody
Q: With B1 as the binder, how does the Kd [1] read?
A: The Kd was 8.16 nM.

Q: What about the Kd [2] of the same binder?
A: The Kd was 5.22 nM.

Q: And the Kd [3]?
A: Its Kd is 0.85 nM.

Q: And the Kd [4]?
A: The Kd was 0.29 nM.

Q: And the Kd [5]?
A: Its Kd is 0.6 nM.
